Consider 23 sequences from the Immune Epitope Database (IEDB).

Bounds are passed on as bounds.

Among the targets are HLA-A*03:01; HLA-A*11:01; HLA-A*31:01; HLA-A*33:01; HLA-A*68:01.
What all share (test): IEDB peptide-MHC binding, purified MHC/competitive/radioactivity; filed as Kd, often an IC50 or EC50 that approximates it; ≥ and ≤ were set here for values at or beyond the usual limits of such assays
Where [1] appears, read: source organism: Vaccinia virus WR.
[2] abbreviates: source organism: SARS coronavirus Tor2.
Where [3] appears, read: source organism: Lassa virus Josiah.
Where [4] appears, read: source organism: Mammarenavirus machupoense.

Turning to IMEIVSHLR, the Kd was determined as 1960 nM in the assay with HLA-A*03:01 (setting [1]); 219 nM with HLA-A*11:01 (setting [1]); 11.9 nM in the assay with HLA-A*31:01 (setting [1]); 53.3 nM with HLA-A*33:01 (setting [1]); 3.25 nM with HLA-A*68:01 (setting [1]).

As for YLRLYIILAR, the Kd with HLA-A*03:01 (setting [1]) was 160 nM; with HLA-A*11:01 (setting [1]) it was 1470 nM; with HLA-A*31:01 (setting [1]), 12.7 nM; with HLA-A*33:01 (setting [1]) it was 117 nM; with HLA-A*68:01 (setting [1]), 14.8 nM.

With QLQLLMPLK, the Kd was 151 nM in the assay with HLA-A*03:01 (setting [2]); 14.3 nM with HLA-A*11:01 (setting [2]); 1480 nM with HLA-A*31:01 (setting [2]); 2350 nM in the assay with HLA-A*33:01 (setting [2]); 13400 nM with HLA-A*68:01 (setting [2]).

For the sequence QTPTKLMNK, the Kd with HLA-A*03:01 (setting [1]) was 210 nM; in the assay with HLA-A*11:01 (setting [1]), 306 nM; in the assay with HLA-A*31:01 (setting [1]) it was not below 22700 nM; with HLA-A*33:01 (setting [1]), not below 77700 nM; in the assay with HLA-A*68:01 (setting [1]), 178 nM.

Turning to PIIVAGFSGK, the Kd in the assay with HLA-A*03:01 (setting [1]) is 681 nM; with HLA-A*11:01 (setting [1]), 761 nM; with HLA-A*31:01 (setting [1]) it was not below 70000 nM; with HLA-A*33:01 (setting [1]), not below 45600 nM; with HLA-A*68:01 (setting [1]), 3760 nM.

Consider AFDAPTLYVK, for which the Kd with HLA-A*03:01 (setting [1]) is 2280 nM; with HLA-A*11:01 (setting [1]), 271 nM; with HLA-A*31:01 (setting [1]) it was 3840 nM; with HLA-A*33:01 (setting [1]), not below 56000 nM; with HLA-A*68:01 (setting [1]), 134 nM.

In the case of AAISKLGINY, the dissociation constant Kd with HLA-A*03:01 (setting [1]) was found to be 320 nM; in the assay with HLA-A*11:01 (setting [1]), 357 nM; with HLA-A*31:01 (setting [1]), 1400 nM; with HLA-A*33:01 (setting [1]) it was 1210 nM; in the assay with HLA-A*68:01 (setting [1]), 279 nM.

For KLVYIFEPEK, the Kd was 53.7 nM with HLA-A*03:01 (setting [1]); 154 nM with HLA-A*11:01 (setting [1]); 9210 nM in the assay with HLA-A*31:01 (setting [1]); not below 70000 nM with HLA-A*33:01 (setting [1]); 1690 nM in the assay with HLA-A*68:01 (setting [1]).

Turning to SFNHVLKRK, the Kd in the assay with HLA-A*03:01 (setting [2]) was 111 nM; in the assay with HLA-A*11:01 (setting [2]), 1790 nM; with HLA-A*31:01 (setting [2]), 375 nM; with HLA-A*33:01 (setting [2]) it was 6790 nM; with HLA-A*68:01 (setting [2]), not below 24700 nM.

For the sequence KLDNHDILTY, the Kd in the assay with HLA-A*03:01 (setting [1]) is 104 nM; with HLA-A*11:01 (setting [1]), 602 nM; with HLA-A*31:01 (setting [1]), 9280 nM; in the assay with HLA-A*33:01 (setting [1]), not below 70000 nM; in the assay with HLA-A*68:01 (setting [1]), 16400 nM.

In the case of ASGQRCHFIK, the Kd is 927 nM with HLA-A*03:01 (setting [1]); 12.5 nM with HLA-A*11:01 (setting [1]); 1470 nM with HLA-A*31:01 (setting [1]); not below 63300 nM in the assay with HLA-A*33:01 (setting [1]); 5130 nM with HLA-A*68:01 (setting [1]).

As to RTRDIYISRR, the Kd with HLA-A*03:01 (setting [3]) worked out at 393 nM; in the assay with HLA-A*11:01 (setting [3]) it was 4290 nM; with HLA-A*31:01 (setting [3]), 28.1 nM; with HLA-A*33:01 (setting [3]), 725 nM; in the assay with HLA-A*68:01 (setting [3]), 1700 nM.

As for LTRNPAWRK, the dissociation constant Kd with HLA-A*03:01 (setting [2]) was determined as 222 nM; with HLA-A*11:01 (setting [2]), 3950 nM; with HLA-A*31:01 (setting [2]), 5020 nM; with HLA-A*33:01 (setting [2]), 1570 nM; with HLA-A*68:01 (setting [2]), 1420 nM.

On to GTSWFITQR, for which the Kd with HLA-A*03:01 (setting [2]) came out at 318 nM; in the assay with HLA-A*11:01 (setting [2]), 6.53 nM; with HLA-A*31:01 (setting [2]) it was 8.28 nM; with HLA-A*33:01 (setting [2]), 1240 nM; with HLA-A*68:01 (setting [2]) it was 13 nM.

For the sequence MVASDVCKK, the Kd with HLA-A*03:01 (setting [1]) turned out to be 266 nM; with HLA-A*11:01 (setting [1]), 153 nM; with HLA-A*31:01 (setting [1]), 1680 nM; in the assay with HLA-A*33:01 (setting [1]), 6980 nM; with HLA-A*68:01 (setting [1]) it was 65.8 nM.

In the case of KIMEIVSHLR, the Kd with HLA-A*03:01 (setting [1]) turned out to be 73 nM; in the assay with HLA-A*11:01 (setting [1]), 3.61 nM; with HLA-A*31:01 (setting [1]), 0.559 nM; with HLA-A*33:01 (setting [1]) it was 63.5 nM; in the assay with HLA-A*68:01 (setting [1]) it was 2.42 nM.

Consider VTYTEIEPK, for which the Kd with HLA-A*03:01 (setting [2]) is 31.2 nM; with HLA-A*11:01 (setting [2]), 7.49 nM; in the assay with HLA-A*31:01 (setting [2]) it was 1360 nM; with HLA-A*33:01 (setting [2]), not below 25700 nM; in the assay with HLA-A*68:01 (setting [2]), 147 nM.

For YLGSANMDWR, the Kd in the assay with HLA-A*03:01 (setting [1]) worked out at 850 nM; in the assay with HLA-A*11:01 (setting [1]), 921 nM; in the assay with HLA-A*31:01 (setting [1]) it was 1350 nM; with HLA-A*33:01 (setting [1]), 3690 nM; with HLA-A*68:01 (setting [1]), 1070 nM.

Turning to SSFDYCSTNH, the Kd amounted to 17100 nM with HLA-A*03:01 (setting [4]); 1890 nM in the assay with HLA-A*11:01 (setting [4]); 6320 nM with HLA-A*31:01 (setting [4]); 15600 nM in the assay with HLA-A*33:01 (setting [4]); 249 nM with HLA-A*68:01 (setting [4]).

For KFISDNKKEY, the Kd with HLA-A*03:01 (setting [1]) is not below 70100 nM; with HLA-A*11:01 (setting [1]) it was not below 69800 nM; with HLA-A*31:01 (setting [1]), 427 nM; in the assay with HLA-A*33:01 (setting [1]) it was not below 70000 nM; with HLA-A*68:01 (setting [1]), not below 40700 nM.

Turning to TFQLLNMIK, the Kd stood at 20.8 nM with HLA-A*03:01 (setting [1]); 19.5 nM with HLA-A*11:01 (setting [1]); 326 nM with HLA-A*31:01 (setting [1]); 102 nM with HLA-A*33:01 (setting [1]); 11.5 nM with HLA-A*68:01 (setting [1]).

With SACANGWIQY, the Kd with HLA-A*03:01 (setting [1]) was 1200 nM; in the assay with HLA-A*11:01 (setting [1]) it was 59 nM; with HLA-A*31:01 (setting [1]), not below 55000 nM; in the assay with HLA-A*33:01 (setting [1]) it was not below 40500 nM; in the assay with HLA-A*68:01 (setting [1]) it was 2890 nM.

For the sequence RFNVAITRAK, the Kd is 168 nM in the assay with HLA-A*03:01 (setting [2]); 179 nM in the assay with HLA-A*11:01 (setting [2]); 64 nM in the assay with HLA-A*31:01 (setting [2]); 7770 nM with HLA-A*33:01 (setting [2]); 168 nM with HLA-A*68:01 (setting [2]).

As usually defined, the Kd is the equilibrium constant for the complex coming apart.
